Measured values from patent publication EP4667489A1 (Kyinno Biotechnology Co., Ltd., dated 2025).
Positions count from the first letter of the chain named. Where two headings read alike, the source gives them in different places. Values belong to the binder of their own block, whether it stands above or below them.

What was measured:
[1] = target: T1, PDL1-hFc (Kyinno, Cat No.: KP-1009) (human, UniProt Q9NZQ7 19-238, limits assumed); assay: flow cytometry, blocking of PDL1 Fc fusion (taken as PDL1-hFc) binding to 293T-PD1 cells
T1 construct: bought; not shown: human Fc (hFc)
T1 sequence (Q9NZQ7 19-238 limits assumed): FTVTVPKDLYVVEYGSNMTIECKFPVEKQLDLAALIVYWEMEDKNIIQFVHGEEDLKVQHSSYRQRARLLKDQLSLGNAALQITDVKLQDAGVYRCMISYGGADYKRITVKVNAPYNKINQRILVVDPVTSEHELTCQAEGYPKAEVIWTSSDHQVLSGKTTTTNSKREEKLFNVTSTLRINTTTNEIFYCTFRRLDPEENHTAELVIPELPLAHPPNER

[2] = target: T2, PDL1-His (Kyinno, Cat No.: KP-1022) (UniProt Q9NZQ7 19-238, limits assumed); assay: BLI (ForteBio Octet), PDL1-His as mobile phase
T2 construct: not shown: His tag
T2 sequence (Q9NZQ7 19-238 limits assumed): as above

[3] = target: T3, human PDL1 expressed on 293T-PDL1 cells (human, UniProt Q9NZQ7 19-290); assay: cell-based or functional assay
T3 sequence (Q9NZQ7 19-290): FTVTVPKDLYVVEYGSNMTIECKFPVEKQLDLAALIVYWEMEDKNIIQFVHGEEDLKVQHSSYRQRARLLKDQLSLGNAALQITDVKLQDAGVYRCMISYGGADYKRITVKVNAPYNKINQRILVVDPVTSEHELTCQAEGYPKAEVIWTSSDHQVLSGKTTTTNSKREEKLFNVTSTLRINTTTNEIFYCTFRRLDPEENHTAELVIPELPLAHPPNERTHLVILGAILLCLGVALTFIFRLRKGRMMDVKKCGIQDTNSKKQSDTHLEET

[4] = target: T3, human PDL1 expressed on 293T-PDL1 cells; assay: flow cytometry on 293T-PDL1 cells
[5] = target: T4, EGFR-His (Kyinno, Cat No.: KP-1150) (UniProt P00533 25-645, limits assumed); assay: BLI (ForteBio Octet), EGFR-His as mobile phase
T4 construct: bought; not shown: His tag

[6] = target: T5, EGFR-hFc (Kyinno, Cat No.: KP-1149) (UniProt P00533 25-645, limits assumed); assay: ELISA, blocking of EGFR Fc fusion (taken as EGFR-hFc) binding to coated EGF-His
T5 construct: bought; also called EGFR-Fc; not shown: human Fc (hFc)

[7] = target: T6, human EGFR expressed on CT26-EGFR cells (human, UniProt P00533 25-1210); assay: flow cytometry on CT26-EGFR cells
T6 construct: whole, on cells; CT26 cells stably expressing human EGFR (Kyinno KC-1451); also called EGFR-expressing cells; 293T-NFAT-Luc2-EGFR cells

[8] = target: T6, human EGFR expressed on CT26-EGFR cells; assay: cell-based or functional assay
[9] = target: T7, LAG3-hFc (fusion protein of the human LAG3 extracellular domain and human IgG1-Fc) (human, UniProt P18627 23-450); assay: flow cytometry, blocking of LAG3-hFc binding to Daudi cells
T7 construct: extracellular domain; not shown: human IgG1-Fc, Genbank CAC20454.1
T7 sequence (looked up): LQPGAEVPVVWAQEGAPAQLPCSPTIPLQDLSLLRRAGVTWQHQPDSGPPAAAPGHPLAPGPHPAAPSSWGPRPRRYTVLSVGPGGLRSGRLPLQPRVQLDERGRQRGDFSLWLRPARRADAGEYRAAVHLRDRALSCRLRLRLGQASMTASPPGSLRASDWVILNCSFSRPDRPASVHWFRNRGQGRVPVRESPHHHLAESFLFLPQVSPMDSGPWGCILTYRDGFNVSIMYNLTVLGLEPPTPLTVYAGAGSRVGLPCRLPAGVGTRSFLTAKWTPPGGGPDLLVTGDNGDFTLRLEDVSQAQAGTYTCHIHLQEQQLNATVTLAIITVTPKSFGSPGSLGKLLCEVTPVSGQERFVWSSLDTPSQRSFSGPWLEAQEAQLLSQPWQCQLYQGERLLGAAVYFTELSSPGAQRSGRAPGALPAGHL

[10] = target: T8, human LAG3 expressed on 293T-LAG3 cells (human, UniProt P18627 23-525); assay: flow cytometry on 293T-LAG3 cells
T8 construct: whole, on cells; 293T cells stably expressing human LAG3 (Kyinno KC-0214); also called LAG3-expressing cells
T8 sequence (looked up): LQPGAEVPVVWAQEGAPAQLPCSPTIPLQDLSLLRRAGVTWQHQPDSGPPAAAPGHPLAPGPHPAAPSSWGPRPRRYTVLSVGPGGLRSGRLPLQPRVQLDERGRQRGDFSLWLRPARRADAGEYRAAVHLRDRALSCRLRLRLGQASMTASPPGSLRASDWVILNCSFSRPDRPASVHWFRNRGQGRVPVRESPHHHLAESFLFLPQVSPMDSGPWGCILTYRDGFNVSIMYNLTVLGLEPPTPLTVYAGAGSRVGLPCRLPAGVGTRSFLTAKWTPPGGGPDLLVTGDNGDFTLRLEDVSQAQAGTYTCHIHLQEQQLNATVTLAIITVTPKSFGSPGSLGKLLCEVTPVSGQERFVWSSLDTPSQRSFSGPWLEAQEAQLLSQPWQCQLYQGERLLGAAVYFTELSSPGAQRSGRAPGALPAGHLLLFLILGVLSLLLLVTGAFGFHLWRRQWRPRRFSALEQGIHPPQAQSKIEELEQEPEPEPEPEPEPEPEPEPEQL

[11] = target: T9, PD1-hFc (fusion protein of the human PD1 extracellular domain and human IgG1-Fc) (human, UniProt Q15116 25-170); assay: flow cytometry, blocking of PD1-hFc binding to 293T-PDL1 cells
T9 construct: extracellular domain; also called human PD1-hFc; not shown: human IgG1-Fc, Genbank CAC20454.1
T9 sequence (Q15116 25-170): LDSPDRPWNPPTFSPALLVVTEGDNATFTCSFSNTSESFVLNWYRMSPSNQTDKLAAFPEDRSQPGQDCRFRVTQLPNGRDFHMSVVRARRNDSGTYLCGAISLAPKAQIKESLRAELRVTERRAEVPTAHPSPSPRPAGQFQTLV

[12] = target: T10, human PD1 expressed on 293T-PD1 cells (human, UniProt Q15116 25-288); assay: flow cytometry on 293T-PD1 cells
T10 construct: whole, on cells; 293T cells stably expressing human PD1 (Kyinno KC-0204); also called PD1-expressing cells; Jurkat NFAT-PD1-luc cells
T10 sequence (Q15116 25-288): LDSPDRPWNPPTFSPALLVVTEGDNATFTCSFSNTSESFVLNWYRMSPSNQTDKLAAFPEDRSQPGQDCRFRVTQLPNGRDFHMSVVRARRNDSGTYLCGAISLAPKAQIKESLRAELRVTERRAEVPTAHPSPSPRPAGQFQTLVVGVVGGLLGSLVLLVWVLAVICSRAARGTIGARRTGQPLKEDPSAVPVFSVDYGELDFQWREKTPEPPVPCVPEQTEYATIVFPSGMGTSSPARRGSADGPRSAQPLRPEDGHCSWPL

[13] = target: T11, EGFR-mFc (fusion protein of the human EGFR extracellular domain and mouse Fc; Kyinno, Cat No.: KP-1148) (human; mouse, UniProt P00533 25-645); assay: ELISA, blocking of EGFR-mFc binding to coated EGF-His
T11 construct: extracellular domain; bought; also called EGFR-Fc; not shown: mouse Fc

[14] = target: T6, human EGFR expressed on CT26-EGFR cells; assay: cell-based or functional assay; remark: listed apart in the source
[15] = target: T6, human EGFR expressed on CT26-EGFR cells; assay: flow cytometry on CT26-EGFR cells; remark: listed apart in the source
[16] = target: T3, human PDL1 expressed on 293T-PDL1 cells; assay: cell-based or functional assay; remark: listed apart in the source
[17] = target: T12, PDL1-mFc (fusion protein of the human PDL1 extracellular domain and mouse Fc; Kyinno, Cat No.: KP-1008) (human; mouse, UniProt Q9NZQ7 19-238); assay: flow cytometry, blocking of PDL1-mFc binding to 293T-PD1 cells
T12 construct: extracellular domain; bought; also called human PDL1-mFc; not shown: mouse Fc
T12 sequence (Q9NZQ7 19-238): as the sequence (Q9NZQ7 19-238 limits assumed) above

[18] = target: T3, human PDL1 expressed on 293T-PDL1 cells; assay: flow cytometry on 293T-PDL1 cells; remark: listed apart in the source

IC50 [1]: 0.986 µg/mL | Kd [2]: 0.431 nM | koff [2]: 0.000618 s⁻¹ | kon [2]: 1.43e+06 M⁻¹ s⁻¹ | IC50, luciferase reporter (Jurkat NFAT-PD1-luc + 293T OS8-hPDL1 cells) [3]: 1 µg/mL | Top (fold increase in activation), luciferase reporter [3]: 3.52 | EC50 [4]: 0.245 µg/mL
B1: anti-PDL1 murine antibody 58E3-2 (hybridoma cell line KD-22-0227 58E3-2) (antibody, V domains shown)
VH: QVQLKESGGGLVKPGGSLKLSCAASGFTFSDYGIHWVRQAPEKGLEWVAFISSGSSTIYYADTVKGRFTISRDNAKNTLFLQMTSLRSEDTAMYYCTRRDFYGSADAMDYWGQGTSVTVSS
VL: QIVLTQSPAIMSASPGEKVTMTCSASSSVSYMHWYQQKSGTSPKRWIYDTSKLASGVPARFSGSGSGTSYSLTISSMEAEDAATYYCQQWSSNPPYTFGSGTKLEIK
notes: murine antibody

IC50 [11]: 2.26 µg/mL | EC50 [12]: 0.685 µg/mL
B4: anti-PD1 murine antibody 107D12-10 (hybridoma cell line KD-22-0054 107D12-10) (antibody, V domains shown)
VH: QVQLKESGGGLVKPGGSLKLSCAASGFTFSDYGMHWVRQAPEKGLEWVAYISSGSYTIYYADTVRDRFTISRDSAKNTLFLQMTSLRSEDTAMYYCVRRGPGYFGSTALDYWGQGTTLTVSS
VL: B1 VL with S26T, S28G, K52R
notes: murine antibody tested as hybridoma culture supernatant

IC50 [13]: 0.0357 µg/mL | IC50, luciferase reporter (procedure of Example 34) [14]: 0.389 nM | EC50 [15]: 0.0382 µg/mL
B5: KA-1063 H22A12-2V1-hIgG1 (antibody, V domains shown)
VH: QVQLVQSGAEVKKPGASVKVSCKASGYTFTDYYMNWVRQAPGQGLEWIGDINPNDGGTSYNQKFKGRATLTVDKSTSTAYMELSSLRSEDTAVYYCAREILYYVTSFYFDYWGQGTTVTVSS
VL: DIQITQSPSSLSASVGDRVTITCSATSGVSYMHWYQQKPGKAPKRLIYDTSRLASGVPSRFSGSGSGTDYTLTISSLQPEDFATYYCQQWSSNPPYTFGQGTRLEIKR
notes: anti-EGFR humanized antibody, human IgG1 / kappa

Second part, the binder before the results:

B2: anti-EGFR murine antibody 22A12-2 (hybridoma cell line KD-22-0198 22A12-2) (antibody, V domains shown)
VH: EVQLQQSGPELVKPGASVKISCKASGYTFTDYYMNWVKQSHGKSLEWIGDINPNDGGTSYNQKFKGKATLTVDKSSSTAYMELRSLTSEDSAVYYCAREILYYVTSFYFDYWGQGTTLTVSS
VL: B1 VL with S26T, S28G, K52R
notes: murine antibody
Kd [5]: 1.15 nM | koff [5]: 0.00111 s⁻¹ | kon [5]: 965000 M⁻¹ s⁻¹ | IC50 [6]: 1.58 µg/mL | EC50 [7]: 0.0242 µg/mL | IC50, luciferase reporter (293T-NFAT-Luc2-EGFR cells stimulated with EGF-His) [8]: 0.373 µg/mL

B3: anti-LAG3 murine antibody 28G2 (hybridoma cell line KD-0019 28G2-7) (antibody, V domains shown)
VH: DVKLQESGPGLVKPSQSLSLTCSVTGYSFTSGYYWNWIRLFPGNKLEWMGYVSYFGTNNYNPSLKNRFSITRDTSKNQFFLKLNSVSTEDTATYYCARGEEWDWSFDVWGTGTTVTVSS
VL: B1 VL with Q1D, I10F, A59T, S92T, S100G
notes: as for B4
IC50 [9]: 1.26 µg/mL | EC50 [10]: 1.08 µg/mL

B6: KA-2016 H58E3-2V4-2-hIgG1 (antibody, V domains shown)
VH: QVQLVESGGGLVKPGGSLRLSCAASGFTFSDYGIHWIRQAPGKGLEWVAFISSGSSTIYYADAVKGRFTISRDNAKNSLYLQMNSLRAEDTAVYYCTRRDFYGSADAMDYWGQGTTVTVSS
VL: DIQLTQSPSTLSASVGDRVTITCSATSSIGYMHWYQQKPGTSPKRWIYDTSKLASGVPSRFSGSGSGTEYTLTISSLQPDDFATYYCQLWSSDPPYTFGQGTRLEIKR
notes: anti-PDL1 humanized antibody, human IgG1 / kappa
IC50, luciferase reporter (procedure of Example 25) [16]: 0.081 nM | IC50 [17]: 0.0229 µg/mL | EC50 [18]: 0.0419 µg/mL
